Assay results taken from US20050256302A1, “Novel peptides having camp producing activity” (Japan Science and Technology Agency, priority 2002, published 2005).
Bridges are numbered along the chain shown (N, C = ends). Where no end group is shown, it is not given here.

Columns and labels:
LLC-PK1 cells = assay: cAMP production in LLC-PK1 cells by bovine or canine CRSP; format: cell-based, pig; settings: 10 minutes, IBMX
Protocol: Further, with regard to the peptides of the present invention identified in cow and dog (bovine CRSP and canine CRSP), cAMP productivity of CRSP using LLC-PK1 cells by the same manner as above was investigated.
LLC-PK1 cells were incubated in a culture medium (a Dulbecco-modified Eagle medium (DMEM) containing 10% of fetal bovine serum). After two days, the cells were washed twice with a DMEM containing 0.05% of bovine serum albumin, the medium in the incubation dish was substituted with a DMEM containing 0.5 mM of 3-isobutyl-1-methylxanthine and 0.05% of bovine serum albumin (DMEM/BSA/IBMX) and incubation was conducted at 37° C. for 30 minutes. After the incubation, the medium was substituted with a DMEM/BSA/IBMX in which CRSP was dissolved so as to make it 0 M and 10^−12 to 10^−6 M and incubation was conducted at 37° C. for 10 minutes. After the incubation, the medium in the incubating dish was removed, ethanol was added thereto and the incubating dish was once frozen in a freezer for the cell lysis. […] After that, 100 μl of 1% γ-globulin and 500 μl of 25% polyethylene glycol were added, the mixture was well mixed and centrifuged and radioactivity of the precipitate was measured using a gamma-counter and compared with radioactivity of the standard curve prepared by cAMP of known concentrations whereupon the amount of cAMP was quantified.

[1] = target: T1, Pig calcitonin receptor (CTR) (Sus scrofa, UniProt P25117); assay: cAMP production in COS-7 cells expressing pig calcitonin receptor; format: cell-based; settings: CTR expressed in COS-7
T1 construct: expressed in transfected cells; host or cells: COS-7 (given as rhesus monkey renal cells), vector pcDNA 3.1
T1 sequence (P25117 30-498): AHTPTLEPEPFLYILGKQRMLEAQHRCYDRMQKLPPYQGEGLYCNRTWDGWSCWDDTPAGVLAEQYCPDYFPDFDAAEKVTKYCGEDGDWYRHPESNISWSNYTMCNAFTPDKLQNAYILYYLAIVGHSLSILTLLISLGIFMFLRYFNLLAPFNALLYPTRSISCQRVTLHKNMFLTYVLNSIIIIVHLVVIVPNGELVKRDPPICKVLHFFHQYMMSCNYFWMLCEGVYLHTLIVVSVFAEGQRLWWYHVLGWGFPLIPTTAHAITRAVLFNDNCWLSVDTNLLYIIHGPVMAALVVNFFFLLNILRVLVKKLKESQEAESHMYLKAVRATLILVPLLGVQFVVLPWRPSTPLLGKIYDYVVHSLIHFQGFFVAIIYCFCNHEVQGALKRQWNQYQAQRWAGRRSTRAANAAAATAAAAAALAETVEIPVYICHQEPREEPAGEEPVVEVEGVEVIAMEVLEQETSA
Protocol: Pig calcitonin receptor (CTR) was introduced into a mammalian expression vector pcDNA 3.1, expressed in rhesus monkey renal cells (COS-7) and production amount of cAMP by stimulation of CRSP was measured by radioimmunoassay. Similarly, CTR was expressed in opossum renal cells (OK cells) and production amount of cAMP by stimulation of CRSP was measured by radioimmunoassay while incorporation of sodium ion was measured by measuring the incorporation of sodium chloride having radioactivity (^22Na) by a gamma-counter.
Pig calcitonin receptor (CTR) was introduced into mammalian expression vector pcDNA 3.1 and then expressed in rhesus monkey renal cells (COS-7) whereupon production amount of cAMP by CRSP stimulation was measured by radioimmunoassay.
Pig calcitonin receptor (CTR) was introduced into a mammalian expression vector pcDNA 3.1 and expressed in rhesus monkey renal cells (COS-7) and production amount of cAMP by CRSP stimulation was measured by radioimmunoassay.
Pig calcitonin receptor (CTR) was introduced into a mammalian expression vector pcDNA 3.1, then expressed in rhesus monkey renal cells (COS-7) and production amount of cAMP by CRSP or CRSP-Gly stimulation was measured-by radioimmunoassay.

[2] = target: T2, pig calcitonin receptor (CTR) (pig, UniProt P25117); assay: cell-based or functional assay
T2 sequence: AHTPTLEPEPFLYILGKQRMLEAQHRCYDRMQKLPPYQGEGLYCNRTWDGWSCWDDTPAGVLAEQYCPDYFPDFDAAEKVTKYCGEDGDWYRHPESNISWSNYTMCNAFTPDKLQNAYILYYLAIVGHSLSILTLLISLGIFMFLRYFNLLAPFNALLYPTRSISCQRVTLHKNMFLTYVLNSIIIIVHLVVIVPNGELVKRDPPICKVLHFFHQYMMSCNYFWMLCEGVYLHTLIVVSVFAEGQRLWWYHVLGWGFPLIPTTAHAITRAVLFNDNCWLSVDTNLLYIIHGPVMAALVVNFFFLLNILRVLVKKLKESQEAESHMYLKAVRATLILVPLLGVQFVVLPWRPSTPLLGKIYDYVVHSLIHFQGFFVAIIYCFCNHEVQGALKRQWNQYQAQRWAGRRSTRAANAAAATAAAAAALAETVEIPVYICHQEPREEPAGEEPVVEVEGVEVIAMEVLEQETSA

ACNTATCMTHRLAGWLSRSGSMVRSNLLPTKMGFKIFNGP-OH (not fully specified (bridges); printed as ACNTATCMTHRLAGWLSRSGSMVRSNLLPTKMGFKIFNGP-OH; cysteine pairing not given here; listed as Bos sp.) [bovine CRSP]
cAMP productivity compared with pig CRSP (LLC-PK1 cells): nearly the same result as in the case of pig CRSP

SCNSATCVAHWLGGLLSRAGSVANTNLLPTSMGFKVYN-OH (not fully specified (bridges); printed as SCNSATCVAHWLGGLLSRAGSVANTNLLPTSMGFKVYN-OH; cysteine pairing not given here; listed as Canis sp.) [canine CRSP]
cAMP productivity compared with pig CRSP (LLC-PK1 cells): nearly the same result as in the case of pig CRSP

Ser-Cys-Asn-Thr-Ala-Thr-Cys-Met-Thr-His-Arg-Leu-Val-Gly-Leu-Leu-Ser-Arg-Ser-Gly-Ser-Met-Val-Arg-Ser-Asn-Leu-Leu-Pro-Thr-Lys-Met-Gly-Phe-Lys-Val-Phe-Gly-Gly-OH (SCNTATCMTHRLVGLLSRSGSMVRSNLLPTKMGFKVFGG-OH; not fully specified (bridges); printed as Ser-Cys-Asn-Thr-Ala-Thr-Cys-Met-Thr-His-Arg-Leu-Val-Gly-Leu-Leu-Ser-Arg-Ser-Gly-Ser-Met-Val-Arg-Ser-Asn-Leu-Leu-Pro-Thr-Lys-Met-Gly-Phe-Lys-Val-Phe-Gly-Gly-OH; cysteine pairing not given here; listed as Sus sp.) [CRSP-Gly]
cAMP productivity, CRSP compared with CRSP-Gly [1]: nearly the same cAMP productivity

B1: pig calcitonin receptor-stimulating peptide (CRSP) (peptide)
peptide: SCNTATCMTHRLVGLLSRSGSMVRSNLLPTKMGFKVFG-NH2
modifications: disulfide 2-7; N-terminus assumed
SMILES: CSCC[C@H](NC(=O)[C@H](CCCCN)NC(=O)[C@@H](NC(=O)[C@@H]1CCCN1C(=O)[C@H](CC(C)C)NC(=O)[C@H](CC(C)C)NC(=O)[C@H](CC(N)=O)NC(=O)[C@H](CO)NC(=O)[C@H](CCCNC(=N)N)NC(=O)[C@@H](NC(=O)[C@H](CCSC)NC(=O)[C@H](CO)NC(=O)CNC(=O)[C@H](CO)NC(=O)[C@H](CCCNC(=N)N)NC(=O)[C@H](CO)NC(=O)[C@H](CC(C)C)NC(=O)[C@H](CC(C)C)NC(=O)CNC(=O)[C@@H](NC(=O)[C@H](CC(C)C)NC(=O)[C@H](CCCNC(=N)N)NC(=O)[C@H](Cc1c[nH]cn1)NC(=O)[C@@H](NC(=O)[C@H](CCSC)NC(=O)[C@@H]1CSSC[C@H](NC(=O)[C@@H](N)CO)C(=O)N[C@@H](CC(N)=O)C(=O)N[C@@H]([C@@H](C)O)C(=O)N[C@@H](C)C(=O)N[C@@H]([C@@H](C)O)C(=O)N1)[C@@H](C)O)C(C)C)C(C)C)[C@@H](C)O)C(=O)NCC(=O)N[C@@H](Cc1ccccc1)C(=O)N[C@@H](CCCCN)C(=O)N[C@H](C(=O)N[C@@H](Cc1ccccc1)C(=O)NCC(N)=O)C(C)C
cAMP-producing activity relative to pig CGRP, LLC-PK1 cells [2]: ~40 fold | cAMP-producing activity relative to pig calcitonin, COS-7 cells expressing pig CTR [2]: ~350 fold | cAMP-producing activity relative to pig calcitonin, LLC-PK1 cells [2]: ~6 fold
